From article PMC3582566

Biological target: S. mutans VicK (aa31-450), entire intracellular region (S. mutans)
Assay: SEC-MALS; VicK at ~4 mg/ml resolved on a size exclusion column (Shodex KW-802.5) in 50 mM HEPES (pH 7.0), 200 mM Na2SO4 at 25°C; DAWN HELEOS II laser photometer; BSA as control

Substance: S. mutans VicK (aa31-450), entire intracellular region (domain or fragment)
- stoichiometry N: 2
